# Measured values from patent publication US20240116997A1.
# Tests used:
# [1] = molecular target: IL-18 WT (native sequence, SEQ ID NO: 1) (human) (UniProt Q14116)
# [2] = molecular target: C086 (SEQ ID NO: 30; E6K, V11I, C38A, K53A, T63A, C76A, C127A) (human) (UniProt Q14116); test: cell-based or functional assay
# [3] = molecular target: C144 (V11I, C38A, K53A, T63A, C76A, C127A) (human) (UniProt Q14116); test: cell-based or functional assay
# [4] = molecular target: C145 (V11I, C38A, K53A, S55A, C76A, C127A) (human) (UniProt Q14116); test: cell-based or functional assay
# Chain of C145 (V11I, C38A, K53A, S55A, C76A, C127A) (human) (Q14116 37-193 V47I/C74A/K89A/S91A/C112A/C163A): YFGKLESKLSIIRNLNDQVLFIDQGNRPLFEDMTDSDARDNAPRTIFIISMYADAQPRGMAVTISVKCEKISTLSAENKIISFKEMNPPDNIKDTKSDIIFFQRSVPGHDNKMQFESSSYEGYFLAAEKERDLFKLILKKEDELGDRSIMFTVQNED
# [5] = molecular target: C147 (V11I, C38A, K53A, D54A, C76A, C127A) (human) (UniProt Q14116); test: cell-based or functional assay
# Chain of C147 (V11I, C38A, K53A, D54A, C76A, C127A) (human) (Q14116 37-193 V47I/C74A/K89A/D90A/C112A/C163A): as the sequence (Q14116 37-193 V47I/C74A/K89A/S91A/C112A/C163A) above, with D54A, A55S counted along it
# [6] = molecular target: C152 (V11I, S36A, C38A, K53A, C76A, C127A) (human) (UniProt Q14116); test: cell-based or functional assay
# Chain of C152 (V11I, S36A, C38A, K53A, C76A, C127A) (human) (Q14116 37-193 V47I/S72A/C74A/K89A/C112A/C163A): as the sequence (Q14116 37-193 V47I/C74A/K89A/S91A/C112A/C163A) above, with S36A, A55S counted along it
# [7] = molecular target: C153 (V11I, D37A, C38A, K53A, C76A, C127A) (human) (UniProt Q14116); test: cell-based or functional assay
# Chain of C153 (V11I, D37A, C38A, K53A, C76A, C127A) (human) (Q14116 37-193 V47I/D73A/C74A/K89A/C112A/C163A): as the sequence (Q14116 37-193 V47I/C74A/K89A/S91A/C112A/C163A) above, with D37A, A55S counted along it
# [8] = molecular target: C161 (K8R, V11I, C38A, C76A, Q103E, C127A) (human) (UniProt Q14116); test: cell-based or functional assay
# Chain of C161 (K8R, V11I, C38A, C76A, Q103E, C127A) (human) (Q14116 other isoform, or with tags, fused parts or gaps V11I C38A C76A Q103E C127A V11I C38A C76A Q103E C127A): as the sequence (Q14116 37-193 V47I/C74A/K89A/S91A/C112A/C163A) above, with K8R, A53K, A55S, Q103E counted along it
# [9] = molecular target: C162 (K8E, V11I, C38A, C76A, Q103R, C127A) (human) (UniProt Q14116); test: cell-based or functional assay
# Chain of C162 (K8E, V11I, C38A, C76A, Q103R, C127A) (human) (Q14116 other isoform, or with tags, fused parts or gaps V11I C38A C76A Q103R C127A V11I C38A C76A Q103R C127A): as the sequence (Q14116 37-193 V47I/C74A/K89A/S91A/C112A/C163A) above, with K8E, A53K, A55S, Q103R counted along it
# [10] = molecular target: C164 (V11I, C38A, S55H, C76A, C127A) (human) (UniProt Q14116); test: cell-based or functional assay
# Chain of C164 (V11I, C38A, S55H, C76A, C127A) (human) (Q14116 37-193 V47I/C74A/S91H/C112A/C163A): as the sequence (Q14116 37-193 V47I/C74A/K89A/S91A/C112A/C163A) above, with A53K, A55H counted along it
# [11] = molecular target: C166 (V11I, C38A, S55T, C76A, C127A) (human) (UniProt Q14116); test: cell-based or functional assay
# Chain of C166 (V11I, C38A, S55T, C76A, C127A) (human) (Q14116 37-193 V47I/C74A/S91T/C112A/C163A): as the sequence (Q14116 37-193 V47I/C74A/K89A/S91A/C112A/C163A) above, with A53K, A55T counted along it
# [12] = molecular target: IL-18 WT (native sequence, SEQ ID NO: 1) (human) (UniProt Q14116); test: cell-based or functional assay
# [13] = molecular target: IL-18 polypeptide SEQ ID NO: 34 (E06K, K53A, S55A) (human) (UniProt Q14116); test: cell-based or functional assay
# Chain of IL-18 polypeptide SEQ ID NO: 34 (E06K, K53A, S55A) (human) (Q14116 37-193 E42K/K89A/S91A): as the sequence (Q14116 37-193 V47I/C74A/K89A/S91A/C112A/C163A) above, with E6K, I11V, A38C, A76C, A127C counted along it
# [14] = molecular target: IL-18 polypeptide SEQ ID NO: 36 (K53A) (human) (UniProt Q14116); test: cell-based or functional assay
# Chain of IL-18 polypeptide SEQ ID NO: 36 (K53A) (human) (Q14116 37-193 K89A): as the sequence (Q14116 37-193 V47I/C74A/K89A/S91A/C112A/C163A) above, with I11V, A38C, A55S, A76C, A127C counted along it
# [15] = molecular target: IL-18 polypeptide SEQ ID NO: 47 (C38S, C68S, C76S, C127S) (human) (UniProt Q14116); test: cell-based or functional assay
# Chain of IL-18 polypeptide SEQ ID NO: 47 (C38S, C68S, C76S, C127S) (human) (Q14116 37-193 C74S/C104S/C112S/C163S): as the sequence (Q14116 37-193 V47I/C74A/K89A/S91A/C112A/C163A) above, with I11V, A38S, A53K, A55S, C68S, A76S, A127S counted along it
# [16] = molecular target: IL-18 polypeptide SEQ ID NO: 48 (C38S, C68S, C76S, C127S, K70C) (human) (UniProt Q14116); test: cell-based or functional assay
# Chain of IL-18 polypeptide SEQ ID NO: 48 (C38S, C68S, C76S, C127S, K70C) (human) (Q14116 37-193 C74S/C104S/K106C/C112S/C163S): as the sequence (Q14116 37-193 V47I/C74A/K89A/S91A/C112A/C163A) above, with I11V, A38S, A53K, A55S, C68S, K70C, A76S, A127S counted along it
# [17] = molecular target: IL-18 polypeptide SEQ ID NO: 51 (T63A) (human) (UniProt Q14116); test: cell-based or functional assay
# Chain of IL-18 polypeptide SEQ ID NO: 51 (T63A) (human) (Q14116 37-193 T99A): as the sequence (Q14116 37-193 V47I/C74A/K89A/S91A/C112A/C163A) above, with I11V, A38C, A53K, A55S, T63A, A76C, A127C counted along it
# [18] = molecular target: IL-18 polypeptide SEQ ID NO: 52 (E06K, T63A) (human) (UniProt Q14116); test: cell-based or functional assay
# Chain of IL-18 polypeptide SEQ ID NO: 52 (E06K, T63A) (human) (Q14116 37-193 E42K/T99A): as the sequence (Q14116 37-193 V47I/C74A/K89A/S91A/C112A/C163A) above, with E6K, I11V, A38C, A53K, A55S, T63A, A76C, A127C counted along it
# [19] = molecular target: IL-18 polypeptide SEQ ID NO: 53 (K53A, T63A) (human) (UniProt Q14116); test: cell-based or functional assay
# Chain of IL-18 polypeptide SEQ ID NO: 53 (K53A, T63A) (human) (Q14116 37-193 K89A/T99A): as the sequence (Q14116 37-193 V47I/C74A/K89A/S91A/C112A/C163A) above, with I11V, A38C, A55S, T63A, A76C, A127C counted along it
# [20] = molecular target: IL-18 polypeptide SEQ ID NO: 55 (K53A, T63A, C38S, C68S, C76S, C127S, K70C) (human) (UniProt Q14116); test: cell-based or functional assay
# Chain of IL-18 polypeptide SEQ ID NO: 55 (K53A, T63A, C38S, C68S, C76S, C127S, K70C) (human) (Q14116 37-193 C74S/K89A/T99A/C104S/K106C/C112S/C163S): as the sequence (Q14116 37-193 V47I/C74A/K89A/S91A/C112A/C163A) above, with I11V, A38S, A55S, T63A, C68S, K70C, A76S, A127S counted along it
# [21] = molecular target: IL-18 polypeptide SEQ ID NO: 9 (E6K, C38A, K53A, C68A, D98C) (human) (UniProt Q14116); test: cell-based or functional assay
# Chain of IL-18 polypeptide SEQ ID NO: 9 (E6K, C38A, K53A, C68A, D98C) (human) (Q14116 other isoform, or with tags, fused parts or gaps C38A K53A C68A D98C C38A K53A C68A D98C): as the sequence (Q14116 37-193 V47I/C74A/K89A/S91A/C112A/C163A) above, with E6K, I11V, A55S, C68A, A76C, D98C, A127C counted along it
# Chain of IL-18 WT (native sequence, SEQ ID NO: 1) (human) (Q14116 37-193): as the sequence (Q14116 37-193 V47I/C74A/K89A/S91A/C112A/C163A) above, with I11V, A38C, A53K, A55S, A76C, A127C counted along it
# Chain of C144 (V11I, C38A, K53A, T63A, C76A, C127A) (human) (Q14116 37-193 V47I/C74A/K89A/T99A/C112A/C163A): as the sequence (Q14116 37-193 V47I/C74A/K89A/S91A/C112A/C163A) above, with A55S, T63A counted along it
# Chain of C086 (SEQ ID NO: 30; E6K, V11I, C38A, K53A, T63A, C76A, C127A) (human) (Q14116 other isoform, or with tags, fused parts or gaps with the stated changes): as the sequence (Q14116 37-193 V47I/C74A/K89A/S91A/C112A/C163A) above, with E6K, A55S, T63A counted along it
substance,measurement,setting,value
Fc-fused human IL-18 binding protein isoform a (IL-18BPa) (from UniProt O95998 31-194) (Fc fusion),"IC50 (read off the curve), inhibition of IFNg production by NK-92 cells",[1],1 to 2 nM
same,"IC50 (nM), IL-18BPa inhibition of IFNγ induction, NK-92 cells",[2],284 nM
same,"IC50 (nM), IL-18BPa inhibition of IFNγ induction, NK-92 cells",[3],10.2 nM
same,"IC50 (nM), IL-18BPa inhibition of IFNγ induction, NK-92 cells",[4],733 nM
same,"IC50 (nM), IL-18BPa inhibition of IFNγ induction, NK-92 cells",[5],5.05 nM
same,"IC50 (nM), IL-18BPa inhibition of IFNγ induction, NK-92 cells",[6],2.22 nM
same,"IC50 (nM), IL-18BPa inhibition of IFNγ induction, NK-92 cells",[7],3.71 nM
same,"IC50 (nM), IL-18BPa inhibition of IFNγ induction, NK-92 cells",[8],7.29 nM
same,"IC50 (nM), IL-18BPa inhibition of IFNγ induction, NK-92 cells",[9],0.823 nM
same,"IC50 (nM), IL-18BPa inhibition of IFNγ induction, NK-92 cells",[10],0.885 nM
same,"IC50 (nM), IL-18BPa inhibition of IFNγ induction, NK-92 cells",[11],0.809 nM
same,"IC50 (nM), IL-18BPa inhibition of IFNγ induction, NK-92 cells",[12],1.47 nM
same,"IC50 (nM), IL-18BPa inhibition of IFNγ induction, NK-92 cells",[13],229 nM
same,"IC50 (nM), IL-18BPa inhibition of IFNγ induction, NK-92 cells",[14],27.3 nM
same,"IC50 (nM), IL-18BPa inhibition of IFNγ induction, NK-92 cells",[15],0.444 nM
same,"IC50 (nM), IL-18BPa inhibition of IFNγ induction, NK-92 cells",[16],0.114 nM
same,"IC50 (nM), IL-18BPa inhibition of IFNγ induction, NK-92 cells",[17],0.239 nM
same,"IC50 (nM), IL-18BPa inhibition of IFNγ induction, NK-92 cells",[18],47.1 nM
same,"IC50 (nM), IL-18BPa inhibition of IFNγ induction, NK-92 cells",[19],18.2 nM
same,"IC50 (nM), IL-18BPa inhibition of IFNγ induction, NK-92 cells",[20],> 1000 nM
same,"IC50 (nM), IL-18BPa inhibition of IFNγ induction, NK-92 cells",[21],961 nM
